Earlier results, collected in PMC2773841.

Target: DnaK (Escherichia coli) (UniProt P0A6Y8)
Sequence (P0A6Y8 2-638): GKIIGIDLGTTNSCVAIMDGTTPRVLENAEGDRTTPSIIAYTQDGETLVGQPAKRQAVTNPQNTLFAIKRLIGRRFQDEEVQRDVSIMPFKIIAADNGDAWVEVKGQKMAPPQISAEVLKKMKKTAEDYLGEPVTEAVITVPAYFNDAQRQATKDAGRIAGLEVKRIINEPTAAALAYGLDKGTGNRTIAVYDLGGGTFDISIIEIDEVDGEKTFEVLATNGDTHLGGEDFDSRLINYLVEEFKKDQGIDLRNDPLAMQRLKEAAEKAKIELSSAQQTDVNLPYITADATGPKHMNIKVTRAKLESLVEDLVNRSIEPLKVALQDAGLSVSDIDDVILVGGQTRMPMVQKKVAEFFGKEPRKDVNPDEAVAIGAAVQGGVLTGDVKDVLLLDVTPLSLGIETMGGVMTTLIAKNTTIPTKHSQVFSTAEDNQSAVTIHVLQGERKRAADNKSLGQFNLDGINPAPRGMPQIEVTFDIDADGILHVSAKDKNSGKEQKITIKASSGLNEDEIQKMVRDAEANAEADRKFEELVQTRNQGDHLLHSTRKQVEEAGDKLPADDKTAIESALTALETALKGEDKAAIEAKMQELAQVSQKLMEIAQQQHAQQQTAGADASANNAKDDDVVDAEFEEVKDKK

Chain of GrpE (P09372 whole entry): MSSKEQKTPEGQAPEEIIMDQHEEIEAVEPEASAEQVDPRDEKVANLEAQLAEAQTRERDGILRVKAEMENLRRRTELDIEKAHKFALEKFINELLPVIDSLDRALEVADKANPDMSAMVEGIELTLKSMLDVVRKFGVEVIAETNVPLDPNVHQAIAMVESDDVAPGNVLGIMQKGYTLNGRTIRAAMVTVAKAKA

Substance: GrpE (from UniProt P09372)
- Kd: 1 nM
